Assay results reported in patent US7105641.

target: MCP-1RB (monocyte chemoattractant protein-1 receptor B) (human) (UniProt P41597); experiment: cell-based or functional assay
Sequence (P41597 other isoform, or with tags, fused parts or gaps): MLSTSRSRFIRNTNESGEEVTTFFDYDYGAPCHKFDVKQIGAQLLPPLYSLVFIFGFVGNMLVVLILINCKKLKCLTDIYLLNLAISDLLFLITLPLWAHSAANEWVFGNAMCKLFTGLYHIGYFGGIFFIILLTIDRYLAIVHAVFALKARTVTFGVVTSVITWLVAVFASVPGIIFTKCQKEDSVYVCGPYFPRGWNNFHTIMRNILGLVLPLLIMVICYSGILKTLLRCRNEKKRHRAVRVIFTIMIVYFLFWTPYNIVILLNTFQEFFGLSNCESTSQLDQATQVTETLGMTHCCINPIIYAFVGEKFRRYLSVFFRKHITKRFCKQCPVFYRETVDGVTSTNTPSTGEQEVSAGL

IC50(nM), Inhibition of Adenylyl Cyclase, > 1000 nM:
RANTES (from UniProt P13501 24-91) (ligand), MIP-1β (from UniProt P13236 24-92) (ligand), IL-8 (interleukin-8) (from UniProt P10145 28-99) (ligand), Gro-α (from UniProt P09341 35-107) (ligand), MIP-1α (from UniProt P10147 27-92) (ligand)

target: MIP-1α/RANTES receptor (Homo sapiens (Human)) (UniProt P32246); experiment: cell-based or functional assay
Sequence (P32246 whole entry): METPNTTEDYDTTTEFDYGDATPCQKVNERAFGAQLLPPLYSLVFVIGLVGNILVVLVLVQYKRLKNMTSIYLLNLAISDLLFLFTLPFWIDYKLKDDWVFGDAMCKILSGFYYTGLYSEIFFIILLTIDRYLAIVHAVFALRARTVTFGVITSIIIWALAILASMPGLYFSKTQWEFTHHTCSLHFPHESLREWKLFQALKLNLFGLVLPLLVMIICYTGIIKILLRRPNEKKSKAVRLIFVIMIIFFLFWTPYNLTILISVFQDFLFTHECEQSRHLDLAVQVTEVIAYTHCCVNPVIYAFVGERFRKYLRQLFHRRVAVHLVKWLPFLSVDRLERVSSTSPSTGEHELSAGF

IC50(nM), Inhibition of Adenylyl Cyclase, > 1000 nM:
Gro-α (from UniProt P09341 35-107) (ligand)
